Laboratory results as given in patent publication US20130336893A1 (Sanofi, published 2013).
*1 amine or outer side, *2 acyl side, *3 side chain or, on linkers, in order; H or OH if unused. Where no end group is shown, it is not given here. Side-chain parts run from the residue outwards. [ ]: non-standard residue; d: D form. The star is where a group is joined. γGlu = O=C(O)[C@H](CCC(=O)[*:2])N[*:1]; Palmitoyl = CCCCCCCCCCCCCCCC(=O)*; Propionyl = CCC(=O)*; βAla = NCCC(=O)O

Assays:
human glucagon receptor = human glucagon receptor (human, UniProt P47871 26-477); test: cell-based or functional assay
human glucagon receptor, sequence (P47871 26-477): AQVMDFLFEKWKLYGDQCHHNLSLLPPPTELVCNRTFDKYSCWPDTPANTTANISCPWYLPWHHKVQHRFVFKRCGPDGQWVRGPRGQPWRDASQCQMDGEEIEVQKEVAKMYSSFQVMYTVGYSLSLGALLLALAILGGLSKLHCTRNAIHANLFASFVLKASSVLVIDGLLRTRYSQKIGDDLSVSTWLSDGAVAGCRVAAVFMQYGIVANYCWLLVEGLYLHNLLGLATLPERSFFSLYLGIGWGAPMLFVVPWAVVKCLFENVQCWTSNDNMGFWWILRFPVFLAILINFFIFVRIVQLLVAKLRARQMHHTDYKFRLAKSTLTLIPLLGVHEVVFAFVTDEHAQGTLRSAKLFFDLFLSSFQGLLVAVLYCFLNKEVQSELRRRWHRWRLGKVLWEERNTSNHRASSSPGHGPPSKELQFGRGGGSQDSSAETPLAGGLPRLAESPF

human GLP-1 receptor = human GLP-1 receptor (human, UniProt P43220 24-463); test: cell-based or functional assay

Row | Binder | EC50 hGlucagonR (cAMP formation) (human glucagon receptor) [nM] | EC50 hGLP-1R (cAMP formation) (human GLP-1 receptor) [nM]
1 | HSQGTFTSDLSKQMEERRAKDFIEWLKNGGPSSGAPPPS-NH2 [SEQ ID NO: (16)] | 2.13 | 0.0076
2 | H[dS]QGTFTSDLSKQMESRAAQDFIEWLKSGGPSSGAPPPSK([γGlu-Palmitoyl])-NH2 (N-terminus assumed; SMILES CCCCCCCCCCCCCCCC(=O)N[C@@H](CCC(=O)NCCCC[C@H](NC(=O)[C@H](CO)NC(=O)[C@@H]1CCCN1C(=O)[C@@H]1CCCN1C(=O)[C@@H]1CCCN1C(=O)[C@H](C)NC(=O)CNC(=O)[C@H](CO)NC(=O)[C@H](CO)NC(=O)[C@@H]1CCCN1C(=O)CNC(=O)CNC(=O)[C@H](CO)NC(=O)[C@H](CCCCN)NC(=O)[C@H](CC(C)C)NC(=O)[C@H](Cc1c[nH]c2ccccc12)NC(=O)[C@H](CCC(=O)O)NC(=O)[C@@H](NC(=O)[C@H](Cc1ccccc1)NC(=O)[C@H](CC(=O)O)NC(=O)[C@H](CCC(N)=O)NC(=O)[C@H](C)NC(=O)[C@H](C)NC(=O)[C@H](CCCNC(=N)N)NC(=O)[C@H](CO)NC(=O)[C@H](CCC(=O)O)NC(=O)[C@H](CCSC)NC(=O)[C@H](CCC(N)=O)NC(=O)[C@H](CCCCN)NC(=O)[C@H](CO)NC(=O)[C@H](CC(C)C)NC(=O)[C@H](CC(=O)O)NC(=O)[C@H](CO)NC(=O)[C@@H](NC(=O)[C@H](Cc1ccccc1)NC(=O)[C@@H](NC(=O)CNC(=O)[C@H](CCC(N)=O)NC(=O)[C@@H](CO)NC(=O)[C@@H](N)Cc1c[nH]cn1)[C@@H](C)O)[C@@H](C)O)[C@@H](C)CC)C(N)=O)C(=O)O) [SEQ ID NO: (103)] | 0.0459 | 0.0037
3 | H[dS]QGTFTSDLSKQMESRRAQDFIEWLKSGGPSSGAPPPSK(6‑((4,4-diphenyl-cyclohexyloxy)-hydroxy-phosphoryloxy)‑hexanoyl)-NH2 [SEQ ID NO: (107)] | 5.16 | 0.009
4 | H[dS]QGTFTSDLSKQMESRRAQDFIEWLKSGGPSSGAPPPSK([γGlu-Propionyl])-NH2 [SEQ ID NO: (106)] | 1.32 | 0.315
5 | H[dS]QGTFTSDLSKQMESRRAQDFIEWLKSGGPSSGAPPPSK(Ac)-NH2 [SEQ ID NO: (105)] | 0.614 | 0.142
6 | H[dS]QGTFTSDLSKQMEEEAAQDFIEWLKAGGPSSGAPPPSK([γGlu-Palmitoyl])-NH2 (N-terminus assumed; SMILES CCCCCCCCCCCCCCCC(=O)N[C@@H](CCC(=O)NCCCC[C@H](NC(=O)[C@H](CO)NC(=O)[C@@H]1CCCN1C(=O)[C@@H]1CCCN1C(=O)[C@@H]1CCCN1C(=O)[C@H](C)NC(=O)CNC(=O)[C@H](CO)NC(=O)[C@H](CO)NC(=O)[C@@H]1CCCN1C(=O)CNC(=O)CNC(=O)[C@H](C)NC(=O)[C@H](CCCCN)NC(=O)[C@H](CC(C)C)NC(=O)[C@H](Cc1c[nH]c2ccccc12)NC(=O)[C@H](CCC(=O)O)NC(=O)[C@@H](NC(=O)[C@H](Cc1ccccc1)NC(=O)[C@H](CC(=O)O)NC(=O)[C@H](CCC(N)=O)NC(=O)[C@H](C)NC(=O)[C@H](C)NC(=O)[C@H](CCC(=O)O)NC(=O)[C@H](CCC(=O)O)NC(=O)[C@H](CCC(=O)O)NC(=O)[C@H](CCSC)NC(=O)[C@H](CCC(N)=O)NC(=O)[C@H](CCCCN)NC(=O)[C@H](CO)NC(=O)[C@H](CC(C)C)NC(=O)[C@H](CC(=O)O)NC(=O)[C@H](CO)NC(=O)[C@@H](NC(=O)[C@H](Cc1ccccc1)NC(=O)[C@@H](NC(=O)CNC(=O)[C@H](CCC(N)=O)NC(=O)[C@@H](CO)NC(=O)[C@@H](N)Cc1c[nH]cn1)[C@@H](C)O)[C@@H](C)O)[C@@H](C)CC)C(N)=O)C(=O)O) [SEQ ID NO: (108)] | 0.541 | 0.0021
7 | H[dS]QGTFTSDLSKQMESRRAQDFIEWLKEGGPSSGKPPPSK([γGlu-Palmitoyl])-NH2 (N-terminus assumed; SMILES CCCCCCCCCCCCCCCC(=O)N[C@@H](CCC(=O)NCCCC[C@H](NC(=O)[C@H](CO)NC(=O)[C@@H]1CCCN1C(=O)[C@@H]1CCCN1C(=O)[C@@H]1CCCN1C(=O)[C@H](CCCCN)NC(=O)CNC(=O)[C@H](CO)NC(=O)[C@H](CO)NC(=O)[C@@H]1CCCN1C(=O)CNC(=O)CNC(=O)[C@H](CCC(=O)O)NC(=O)[C@H](CCCCN)NC(=O)[C@H](CC(C)C)NC(=O)[C@H](Cc1c[nH]c2ccccc12)NC(=O)[C@H](CCC(=O)O)NC(=O)[C@@H](NC(=O)[C@H](Cc1ccccc1)NC(=O)[C@H](CC(=O)O)NC(=O)[C@H](CCC(N)=O)NC(=O)[C@H](C)NC(=O)[C@H](CCCNC(=N)N)NC(=O)[C@H](CCCNC(=N)N)NC(=O)[C@H](CO)NC(=O)[C@H](CCC(=O)O)NC(=O)[C@H](CCSC)NC(=O)[C@H](CCC(N)=O)NC(=O)[C@H](CCCCN)NC(=O)[C@H](CO)NC(=O)[C@H](CC(C)C)NC(=O)[C@H](CC(=O)O)NC(=O)[C@H](CO)NC(=O)[C@@H](NC(=O)[C@H](Cc1ccccc1)NC(=O)[C@@H](NC(=O)CNC(=O)[C@H](CCC(N)=O)NC(=O)[C@@H](CO)NC(=O)[C@@H](N)Cc1c[nH]cn1)[C@@H](C)O)[C@@H](C)O)[C@@H](C)CC)C(N)=O)C(=O)O) [SEQ ID NO: (104)] | 0.0287 | 0.0073
8 | H[dS]QGTFTSDLSKQMESRRAQDFIEWLKSGGPSSGAPPPK([βAla-βAla-Palmitoyl])-NH2 (N-terminus assumed; SMILES CCCCCCCCCCCCCCCC(=O)NCCC(=O)NCCC(=O)NCCCC[C@H](NC(=O)[C@@H]1CCCN1C(=O)[C@@H]1CCCN1C(=O)[C@@H]1CCCN1C(=O)[C@H](C)NC(=O)CNC(=O)[C@H](CO)NC(=O)[C@H](CO)NC(=O)[C@@H]1CCCN1C(=O)CNC(=O)CNC(=O)[C@H](CO)NC(=O)[C@H](CCCCN)NC(=O)[C@H](CC(C)C)NC(=O)[C@H](Cc1c[nH]c2ccccc12)NC(=O)[C@H](CCC(=O)O)NC(=O)[C@@H](NC(=O)[C@H](Cc1ccccc1)NC(=O)[C@H](CC(=O)O)NC(=O)[C@H](CCC(N)=O)NC(=O)[C@H](C)NC(=O)[C@H](CCCNC(=N)N)NC(=O)[C@H](CCCNC(=N)N)NC(=O)[C@H](CO)NC(=O)[C@H](CCC(=O)O)NC(=O)[C@H](CCSC)NC(=O)[C@H](CCC(N)=O)NC(=O)[C@H](CCCCN)NC(=O)[C@H](CO)NC(=O)[C@H](CC(C)C)NC(=O)[C@H](CC(=O)O)NC(=O)[C@H](CO)NC(=O)[C@@H](NC(=O)[C@H](Cc1ccccc1)NC(=O)[C@@H](NC(=O)CNC(=O)[C@H](CCC(N)=O)NC(=O)[C@@H](CO)NC(=O)[C@@H](N)Cc1c[nH]cn1)[C@@H](C)O)[C@@H](C)O)[C@@H](C)CC)C(N)=O) [SEQ ID NO: (100)] | 0.0166 | 0.0096
9 | H[dS]QGTFTSDLSKQMESRRAQDFIEWLKSGGPSSGAPPPSK([βAla-βAla-Palmitoyl])-NH2 (N-terminus assumed; SMILES CCCCCCCCCCCCCCCC(=O)NCCC(=O)NCCC(=O)NCCCC[C@H](NC(=O)[C@H](CO)NC(=O)[C@@H]1CCCN1C(=O)[C@@H]1CCCN1C(=O)[C@@H]1CCCN1C(=O)[C@H](C)NC(=O)CNC(=O)[C@H](CO)NC(=O)[C@H](CO)NC(=O)[C@@H]1CCCN1C(=O)CNC(=O)CNC(=O)[C@H](CO)NC(=O)[C@H](CCCCN)NC(=O)[C@H](CC(C)C)NC(=O)[C@H](Cc1c[nH]c2ccccc12)NC(=O)[C@H](CCC(=O)O)NC(=O)[C@@H](NC(=O)[C@H](Cc1ccccc1)NC(=O)[C@H](CC(=O)O)NC(=O)[C@H](CCC(N)=O)NC(=O)[C@H](C)NC(=O)[C@H](CCCNC(=N)N)NC(=O)[C@H](CCCNC(=N)N)NC(=O)[C@H](CO)NC(=O)[C@H](CCC(=O)O)NC(=O)[C@H](CCSC)NC(=O)[C@H](CCC(N)=O)NC(=O)[C@H](CCCCN)NC(=O)[C@H](CO)NC(=O)[C@H](CC(C)C)NC(=O)[C@H](CC(=O)O)NC(=O)[C@H](CO)NC(=O)[C@@H](NC(=O)[C@H](Cc1ccccc1)NC(=O)[C@@H](NC(=O)CNC(=O)[C@H](CCC(N)=O)NC(=O)[C@@H](CO)NC(=O)[C@@H](N)Cc1c[nH]cn1)[C@@H](C)O)[C@@H](C)O)[C@@H](C)CC)C(N)=O) [SEQ ID NO: (98)] | 0.0146 | 0.0051
10 | H[dS]QGTFTSDLSKQMESEAAQDFIEWLKAGGPSSGAPPPSK([γGlu-Palmitoyl])-NH2 (N-terminus assumed; SMILES CCCCCCCCCCCCCCCC(=O)N[C@@H](CCC(=O)NCCCC[C@H](NC(=O)[C@H](CO)NC(=O)[C@@H]1CCCN1C(=O)[C@@H]1CCCN1C(=O)[C@@H]1CCCN1C(=O)[C@H](C)NC(=O)CNC(=O)[C@H](CO)NC(=O)[C@H](CO)NC(=O)[C@@H]1CCCN1C(=O)CNC(=O)CNC(=O)[C@H](C)NC(=O)[C@H](CCCCN)NC(=O)[C@H](CC(C)C)NC(=O)[C@H](Cc1c[nH]c2ccccc12)NC(=O)[C@H](CCC(=O)O)NC(=O)[C@@H](NC(=O)[C@H](Cc1ccccc1)NC(=O)[C@H](CC(=O)O)NC(=O)[C@H](CCC(N)=O)NC(=O)[C@H](C)NC(=O)[C@H](C)NC(=O)[C@H](CCC(=O)O)NC(=O)[C@H](CO)NC(=O)[C@H](CCC(=O)O)NC(=O)[C@H](CCSC)NC(=O)[C@H](CCC(N)=O)NC(=O)[C@H](CCCCN)NC(=O)[C@H](CO)NC(=O)[C@H](CC(C)C)NC(=O)[C@H](CC(=O)O)NC(=O)[C@H](CO)NC(=O)[C@@H](NC(=O)[C@H](Cc1ccccc1)NC(=O)[C@@H](NC(=O)CNC(=O)[C@H](CCC(N)=O)NC(=O)[C@@H](CO)NC(=O)[C@@H](N)Cc1c[nH]cn1)[C@@H](C)O)[C@@H](C)O)[C@@H](C)CC)C(N)=O)C(=O)O) [SEQ ID NO: (109)] | 0.277 | 0.0033
